This note sets out measurements from patent US20240279356A1 (Xencor, published 2024).

In test [1] the target is T1, human MSLN antigen (human, UniProt Q13421 296-580, limits assumed).
T1 construct: Soluble antigen for BLI; also called Mesothelin; MESO
Description: Octet BLI on human MSLN antigen (Example 2B(a)); KD quoted in the FIG. 35 legend. The text has this:
Variants of MESO-C were engineered by introducing point substitutions into the variable heavy region (VH) and the variable light region (VL) to generate 11 VH variants and 16 VL variants (sequences for which are depicted in FIG. 18 as H1.1-H1.13 and in FIG. 19 as L1.1-L1.18). An additional 4 VL variants were generated by combining useful point substitutions (sequences for which are depicted in FIG. 19 as L1.19-L1.22). WT and variant variable heavy regions were paired with WT and variant variable light regions to generate variant variable regions (Fvs) which were produced in the context of anti-MSLN×anti-CD3 bispecific antibodies. The bispecific antibodies were screened for MSLN binding affinity using Octet®, a BioLayer Interferometry (BLI)-based method. Experimental steps for Octet® generally include the following: Immobilization (capture of ligand to a biosensor); Association (dipping of ligand-coated biosensors into wells containing the analyte); and Dissociation (returning of biosensors to well containing buffer). In an initial screening, anti-human Fc sensors were used to capture the bispecific mAbs and dipped into human MSLN antigen (one concentration to screen large library). The resulting dissociation constant of illustrative variants (KD), association rate (kₐ), dissociation rate (kd), as well as sensorgram response are depicted in FIG. 20. In further screening of favorite variants identified in the initial screen (and combination variants), bispecific mAbs were dipped into multiple concentrations of human MSLN antigen, data for which are depicted in FIG. 21 (from various screens).

Test [2] addresses T2, cyno MSLN (Macaca fascicularis (cynomolgus)).
T2 construct: soluble antigen for Octet; also called cynomolgus MSLN
The experiment in a line: Octet BLI; bsAb on anti-human Fc sensor, cyno MSLN as analyte, one concentration. Background: In BLI a coated tip is dipped into the sample, and binding shifts an interference pattern.

Test [3] concerns the target T2, cyno MSLN. The experiment in a line: Octet BLI, several concentrations; lower table, column head only 'cyno MSLN (M)'.
Test [4] deals with T1, human MSLN antigen. The experiment in a line: Octet BLI; bsAb on anti-human Fc sensor, human MSLN as analyte, one concentration. An outline of the steps:
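Anti-MSLN×anti-CD3 bispecifics carrying MESO-C VH/VL variant Fvs were captured on anti-human Fc biosensors and dipped into human MSLN antigen, followed by buffer dissociation. Initial library screen used one antigen concentration; selected and combination variants were run at multiple concentrations, giving KD, ka and kd.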

Test [5] concerns the target T1, human MSLN antigen. The experiment in a line: MSLN binding affinity (Octet BLI, Example 2B(a)); quoted in the RTCC example.

Numbering of substitutions follows the chain as printed.

T1 sequence (Q13421 other isoform, or with tags, fused parts or gaps limits assumed): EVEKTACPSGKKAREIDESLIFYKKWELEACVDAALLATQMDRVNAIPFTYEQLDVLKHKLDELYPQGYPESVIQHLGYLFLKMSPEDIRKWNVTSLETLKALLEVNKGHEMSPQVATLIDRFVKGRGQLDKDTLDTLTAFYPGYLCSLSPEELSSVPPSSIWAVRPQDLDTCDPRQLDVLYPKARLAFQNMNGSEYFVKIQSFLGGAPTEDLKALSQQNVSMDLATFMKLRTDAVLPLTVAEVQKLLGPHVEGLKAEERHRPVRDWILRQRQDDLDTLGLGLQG

B1: XENP32567 (bispecific antibody)
heavy: QVQLVQSGAEVKKPGASVKVSCKASGYTFTSYWMHWVRQAPGQGLEWMGMIHPNSDNTIYYEKFQGRVTMTVDKSISTAYMELSRLRSDDTAVYYCAIIITPVVPKFDYWGQGTLVTVSSASTKGPSVFPLAPSSKSTSGGTAALGCLVKDYFPEPVTVSWNSGALTSGVHTFPAVLQSSGLYSLSSVVTVPSSSLGTQTYICNVNHKPSDTKVDKKVEPKSCDKTHTCPPCPAPPVAGPSVFLFPPKPKDTLMISRTPEVTCVVVDVKHEDPEVKFNWYVDGVEVHNAKTKPREEEYNSTYRVVSVLTVLHQDWLNGKEYKCKVSNKALPAPIEKTISKAKGQPREPQVYTLPPSREEMTKNQVSLTCDVSGFYPSDIAVEWESDGQPENNYKTTPPVLDSDGSFFLYSKLTVDKSRWEQGDVFSCSVMHEALHNHYTQKSLSLSPGK
scFv-Fc: not shown
light: DIVMTQSPDSLAVSLGERATINCKASHDVGTSVAWYQQKPGQSPKLLIYWASTRHTGVPDRFTGSGSGTDFTLTISSLQAEDVAVYFCQQYYSYPLTFGAGTKLEIKRTVAAPSVFIFPPSDEQLKSGTASVVCLLNNFYPREAKVQWKVDNALQSGNSQESVTEQDSKDSTYSLSSTLTLSKADYEKHKVYACEVTHQGLSSPVTKSFNRGEC
notes: 1+1 Fab-scFv-Fc
A word on the Kd: it is the constant that tells how readily two partners part at equilibrium. As a reminder, the koff is a measure of how fast the partners let go of each other. One may read the kon as the rate constant with which the complex forms. In the case of B1, the Kd with human MSLN antigen [1] turned out to be 3.9 nM. In the test with cyno MSLN [2], this molecule returned a Kd of 21.5 nM, a Response of 0.822, a koff of 0.013 s⁻¹ and a kon of 608000 M⁻¹ s⁻¹. The same molecule yielded a Kd in the test with cyno MSLN [3] of 6.7 nM. In the test with human MSLN antigen [4], the Kd is 15.3 nM, the Response amounted to 0.953, the koff came to 0.00887 s⁻¹ and the kon turned out to be 578000 M⁻¹ s⁻¹.

B2: XENP33366 (bispecific antibody)
heavy: B1 heavy with M50W
Fab-scFv-Fc: QVQLVQSGAEVKKPGASVKVSCKASGYTFTSYWMHWVRQAPGQGLEWMGWIHPNSDNTIYYEKFQGRVTMTVDKSISTAYMELSRLRSDDTAVYYCAIIITPVVPKFDYWGQGTLVTVSSASTKGPSVFPLAPSSKSTSGGTAALGCLVKDYFPEPVTVSWNSGALTSGVHTFPAVLQSSGLYSLSSVVTVPSSSLGTQTYICNVNHKPSNTKVDKKVEPKSCGGGGSGGGGSQAVVTQEPSLTVSPGGTVTLTCGSSTGAVTTSNYANWVQQKPGKSPRGLIGGTNKRAPGVPARFSGSLLGGKAALTISGAQPEDEADYYCALWYSNHWVFGGGTKLTVLGKPGSGKPGSGKPGSGKPGSEVQLVESGGGLVQPGGSLRLSCAASGFTFSTYAMNWVRQAPGKGLEWVGRIRSKANNYATYYADSVKGRFTISRDDSKNTLYLQMNSLRAEDTAVYYCVRHGNFGDSYVSWFAYWGQGTLVTVSSGGGGSGGGGSKTHTCPPCPAPPVAGPSVFLFPPKPKDTLMISRTPEVTCVVVDVKHEDPEVKFNWYVDGVEVHNAKTKPREEQYNSTYRVVSVLTVLHQDWLNGKEYKCKVSNKALPAPIEKTISKAKGQPREPQVYTLPPSREQMTKNQVKLTCLVKGFYPSDIAVEWESNGQPENNYKTTPPVLDSDGSFFLYSKLTVDKSRWQQGNVFSCSVMHEALHNHYTQKSLSLSPGK
light: B1 light with T31Q, Y92S
notes: 2+1 Fab2-scFv-Fc
In the test with human MSLN antigen [5], B2 yielded a Kd of 90.4 nM.

B3: XENP33367 (bispecific antibody)
heavy: B1 heavy with M50W
Fab-scFv-Fc: B2 Fab-scFv-Fc
light: B1 light with Y92S, Y94F
notes: 2+1 Fab2-scFv-Fc
The molecule B3 yielded a Kd with human MSLN antigen [5] of 246 nM.
